Results taken from patent US20090070901.

Target: des(methyl) spinach Rubisco (ribulose-1,5-bisphosphate carboxylase-oxygenase holoenzyme) (UniProt P00875)

Substance: wild-type pea Rubisco large subunit epsilon-N-methyltransferase (pea Rubisco LSMT)
- carboxylase activity at saturating and low CO2: showed no difference in activity between native Rubisco and Rubisco with bound pea Rubisco LSMT alone
